Results taken from US20210277141A1 (ORIMABS, published 2021).
Each block holds one binder with its values, some of them ahead of it.

Tests used:
[1] = target: T1, Prostate specific membrane antigen (PSMA) expressed on cell surface (human, UniProt Q04609 1-750); assay: cell-based or functional assay
[2] = target: T1, Prostate specific membrane antigen …; assay: cell ELISA on fixed C4-2 cells; 3-fold dilutions from 100 nM to 0.19 pM; detection with HRP anti-human IgG Fc, TMB
[3] = target: T1, Prostate specific membrane antigen …; assay: cell ELISA on fixed C4-2 cells, 100 nM to 0.19 pM, HRP anti-human IgG Fc
[4] = target: T2, biotinylated recombinant extracellular domain of human PSMA (human, UniProt Q04609 44-750, biotinylated with EZ-Link Sulfo-NHS-Biotin (protein:biotin 1:20); residues not stated); assay: capture ELISA: anti-Flag coated, gy1 scFv in 3-fold dilutions, 0.5 ug/ml biotinylated PSMA, streptavidin-HRP, TMB
T2 construct: Bought from R&D systems; also called biotinylated PSMA; biotinylated PSMA protein
Method: (§1) Briefly, anti-Flag antibody (Sigma) was coated on ELISA plate at 4° C. overnight in PBS. […] Plate was then washed and incubated with biotinylated PSMA and the binding was detected with streptavidin-HRP, and analyzed by colorimetric development using TMB and then stop buffer. Absorbance at OD450 was measured and the affinity was calculated using GraphPad Prism software.
(§2) There is a Flag tag and a V5 tag at the N and C terminus of scFv, and thus antibodies to these tags were used to capture the scFv for ELISA assay. Briefly, anti-Flag antibody (Sigma) was coated on ELISA plate at 1 μg/ml, 50 μl/well at 4° C. overnight in PBS. […] Plate was washed 6 times with PBST and then incubated with 0.5 μg/ml biotinylated PSMA in PBS™ for 1 more hour at RT. After 6 washes, plate was incubated with 1:1000 diluted streptavidin-HRP (BD Bioscience) in PBS™ at RT for 30 min. Plate was washed again for 6 times and incubated with TMB for 20 min at RT, colorimertric reaction was stopped with stop buffer and the absorbance was read at OD450.

[5] = target: T3, PSMA (form not stated; as named in the summary sentence of paragraph 43) (UniProt Q04609 44-750, limits assumed); assay: not stated (summary sentence in the description)
T3 construct: The summary sentence gives neither the assay nor the form of PSMA, so the value could not be assigned to m8, m9 or m10; also called prostate specific membrane antigen

[6] = target: T2, biotinylated recombinant extracellular …; assay: capture ELISA: scFv (100 nM to 0.137 nM) captured on anti-Flag, 0.5 µg/ml biotinylated PSMA, streptavidin-HRP; GraphPad Prism
Method: as §1, §2

[7] = target: T1, Prostate specific membrane antigen …; assay: cell ELISA on fixed C4-2 cells; 3-fold dilutions, 1 h, 37 °C; detection with HRP mouse anti-6His, TMB
Method: (§3) Briefly, C4-2 cultured in 96-well plate were fixed with 4% paraformaldehyde, blocked with 3% H₂O₂ and 6% bovine serum albumin sequentially. […] Cell binding was detected with HRP-conjugated mouse anti-6His and colorimetric signals were developed by TMB and stopped by STOP buffer.
(§4) The next day, cells were fixed with 4% paraformaldehyde for 20 min before being treated with 3% H₂O₂ for 20 minutes to block endogenous peroxidase followed by blocking with 6% bovine serum albumin for 30 min at room temperature. […] Cells were then washed with PBST and incubated with HRP-conjugated mouse anti-6His antibody (AbD Serotec, Bio-Rad, Oxford, UK) for 1h at room temperature. Colorimetric signals were developed by addition of 3, 3′, 5, 5′-tetramethylbenzidine (TMB, eBioscience, CA, USA) and stopped by incubation with 1 M […] for 15 minutes. The absorbance was measured at 450 nm using a Sunrise microplate reader (Tecan, Groedig, Austria) and the binding curves were analyzed using GraphPad Prism 5.0 software.

[8] = target: T1, Prostate specific membrane antigen …; assay: cell ELISA on fixed C4-2 cells, 8100 nM to 0.005 nM, HRP anti-6His; one-site binding hyperbola
Method: as §3, §4

T1 sequence (Q04609 whole entry): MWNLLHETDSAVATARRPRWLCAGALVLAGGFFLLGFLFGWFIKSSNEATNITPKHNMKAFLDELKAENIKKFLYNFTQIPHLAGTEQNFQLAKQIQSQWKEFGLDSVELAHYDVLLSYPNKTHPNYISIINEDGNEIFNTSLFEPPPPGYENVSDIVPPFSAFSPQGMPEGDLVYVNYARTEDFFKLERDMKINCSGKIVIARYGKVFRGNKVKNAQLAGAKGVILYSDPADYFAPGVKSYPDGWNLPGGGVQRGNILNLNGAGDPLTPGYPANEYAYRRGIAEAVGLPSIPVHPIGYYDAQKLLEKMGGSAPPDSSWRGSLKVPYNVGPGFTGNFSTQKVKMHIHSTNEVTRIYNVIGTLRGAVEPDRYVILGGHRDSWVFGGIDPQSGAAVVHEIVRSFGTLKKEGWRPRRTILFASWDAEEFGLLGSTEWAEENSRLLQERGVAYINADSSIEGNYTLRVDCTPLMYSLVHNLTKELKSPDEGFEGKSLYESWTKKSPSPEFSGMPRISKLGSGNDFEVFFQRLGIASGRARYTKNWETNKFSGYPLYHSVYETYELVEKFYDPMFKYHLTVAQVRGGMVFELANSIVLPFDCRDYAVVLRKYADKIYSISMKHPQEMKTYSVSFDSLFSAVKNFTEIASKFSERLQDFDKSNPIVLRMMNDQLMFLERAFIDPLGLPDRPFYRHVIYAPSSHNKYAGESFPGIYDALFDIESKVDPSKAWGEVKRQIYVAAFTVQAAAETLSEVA
T2 sequence (Q04609 44-750): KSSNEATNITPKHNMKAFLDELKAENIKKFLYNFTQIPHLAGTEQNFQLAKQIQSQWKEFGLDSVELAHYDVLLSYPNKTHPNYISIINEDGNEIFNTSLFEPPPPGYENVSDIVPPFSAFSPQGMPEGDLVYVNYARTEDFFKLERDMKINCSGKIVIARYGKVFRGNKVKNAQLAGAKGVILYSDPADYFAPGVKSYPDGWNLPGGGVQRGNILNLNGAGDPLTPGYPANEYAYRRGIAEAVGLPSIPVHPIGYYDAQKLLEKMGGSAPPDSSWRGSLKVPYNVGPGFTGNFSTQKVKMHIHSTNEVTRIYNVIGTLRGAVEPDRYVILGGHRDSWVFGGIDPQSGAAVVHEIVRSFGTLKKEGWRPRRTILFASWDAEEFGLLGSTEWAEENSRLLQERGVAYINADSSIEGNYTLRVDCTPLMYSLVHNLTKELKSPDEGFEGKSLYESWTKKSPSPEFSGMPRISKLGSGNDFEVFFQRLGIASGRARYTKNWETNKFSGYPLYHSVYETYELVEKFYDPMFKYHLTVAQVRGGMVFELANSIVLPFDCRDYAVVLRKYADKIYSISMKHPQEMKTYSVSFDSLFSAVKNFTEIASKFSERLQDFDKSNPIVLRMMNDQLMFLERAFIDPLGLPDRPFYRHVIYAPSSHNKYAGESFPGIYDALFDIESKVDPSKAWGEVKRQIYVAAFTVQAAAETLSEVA
T3 sequence (Q04609 44-750 limits assumed): as the sequence (Q04609 44-750) above

B1: PSMAb-DM1 (antibody, human IgG1, lambda, V domains shown)
VH: EVQLVESGGALAKPGGSLRLSCAASGFTLSGYAMHWVRQAPGKGLEWVAVISYDGSNKYYADSVKGRFTVSRDNSKNTLFLQMNSLRPEDTAVYYCAKGLTWGLGDNDALDIWGPGTTVTVSS
VL: QSVLTQPPSVSGAPGQSVIISCTGSSSNIGAGSHVHWYQQVPGTAPKLLIYENTNRPSGVPDRFSGSKSGTSGSLAITGLQPEDEADYYCATWDDSLNGVIFGGGTKATVLG
modifications: DM1 through SMCC linker, drug/Ab conjugation ratio 3.3 per antibody; conjugated residues and chain not stated
notes: also called PSMAb-ADC; PSMAb conjugate with DM1
IC50 of cytotoxicity on C4-2 cells (alamarBlue, 4 days) [1]: 0.12 nM

B2: PSMAb-MMAF (antibody, human IgG1, lambda, V domains shown)
VH: B1 VH
VL: B1 VL
modifications: MC-vc-PAB-MMAF after partial reduction with TCEP, drug loading 3.03 per antibody; conjugated residues and chain not stated
notes: also called PSMAb-ADC; PSMAb conjugate with MMAF
IC50 of cytotoxicity on C4-2 cells (alamarBlue, 4 days) [1]: 0.92 nM

EC50 (read off the curve) [2]: ~0.1 nM
Kd [3]: 0.1 nM
B3: PSMAb (full IgG1 antibody engineered from gy1-2 scFv) (antibody, V domains shown)
VH: B1 VH
VL: B1 VL
notes: IgG1 heavy constant region and lambda light constant region; expressed in CHO-S cells; also called PSMAb full antibody

B4: PSMAb-MMAE (antibody, human IgG1, lambda, V domains shown)
VH: B1 VH
VL: B1 VL
modifications: MC-vc-PAB-MMAE after partial reduction with TCEP, drug loading 3.5 per antibody; conjugated residues and chain not stated
notes: also called PSMAb-ADC; PSMAb conjugate with MMAE
IC50 of cytotoxicity on C4-2 cells (alamarBlue, 4 days) [1]: 0.59 nM

EC50 (read off the curve) [4]: ~1 nM
Kd [5]: 0.9 nM
Kd [6]: 1.17 nM
B5: gy1 scFv (secreted by yeast strain YVH10) (scFv)
scFv: QSVLTQPPSVSGAPGQSVIISCTGSSSNIGAGSHVHWYQQVPGTAPKLLIYGNTNRPSGVPDRFSGSKSGTSGSLAITGLQPEDEADYYCATWDDSLNGVIFGGGTKVTVLGGSSRSSSSGGGGSGGGGEVQLVESGGALAKPGGSLRLSCAASGSTLSGYAMHWVRQAPGKGLEWVAVISYDGSNKYYADSVKGRFTISRDNSKNTLFLQMNSLRPEDTAVYYCAKGLTWGLGDNDALDIWGPGTTVTVSS
notes: also called scFv gy1; anti-PSMA scFv gy1; not shown: Flag tag at the N terminus; V5 tag at the C terminus; 6xHis tag at the C terminus

EC50 (read off the curve) [7]: ~300 nM
Kd [8]: 4.13 nM
B6: E. coli expressed gy1 scFv (pET302-gy1, BL21) (scFv)
scFv: B5 scFv
notes: also called E. coli expressed scFv gy1; not shown: His tag (purified on HisTrp HP column, detected with anti-6His)
